# Experimental data reported in the supplement of paper PMC12042874.
# ± gives the uncertainty stated by the source.
# Test: amyloid nucleation score (Sup35N fusion, yeast selection) (log enrichment); library NNK3; higher = more nucleation; inactive = no reads after selection
# Method in brief: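 Sup35N was fused to peptides of 20 random codons and expressed in psi-negative yeast, which were induced with 100 μM copper sulfate for 24 hours and then grown on medium lacking adenine and uracil for 7 days at 30°C. Plasmid inserts from input and output were sequenced on Illumina. The nucleation score is the DiMSum log enrichment of output over input reads, centred on the mode score of non-aggregating sequences. Sequences with under 100 input reads were left out, and random libraries had three technical output replicates.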
substance,measurement,value
VRLWFSGRTFSVKVVTHAPC,amyloid nucleation score,1.41 ± 0.098
SDCSGYLQ,amyloid nucleation score,inactive
NEALSERQYRAMLTETLVAG,amyloid nucleation score,inactive
TWVVYFVVRMCVQGSVYSMA,amyloid nucleation score,inactive
PYKNI,amyloid nucleation score,inactive
DAIPARVYYGCQFILCRNDL,amyloid nucleation score,2.85 ± 0.084
IGITLFENHKFGLGLANVPG,amyloid nucleation score,inactive
VISCCP,amyloid nucleation score,inactive
PTITMANKDRFLRRCSPNGG,amyloid nucleation score,inactive
TLIRRVYVRRFYTGIEVGST,amyloid nucleation score,inactive
AWVPMFFSLHMWHCNALNFC,amyloid nucleation score,inactive
YFDSWTSMSAYYMGSFHW,amyloid nucleation score,inactive
HNFYKGFDYHLECMGADTGE,amyloid nucleation score,inactive
NCIAFGWLWSELRN,amyloid nucleation score,inactive
DNATARLQTRNEWSMR,amyloid nucleation score,inactive
VILQMT,amyloid nucleation score,inactive
VFVSS,amyloid nucleation score,-0.36 ± 1
LLFRFMTGVVRLPRDNTYRK,amyloid nucleation score,inactive
FRQYKSPGDLPRMDAVACGK,amyloid nucleation score,-0.832 ± 2.5
CNRWNHL,amyloid nucleation score,inactive
DSGKC,amyloid nucleation score,-0.165 ± 0.33
QCVVVKCCWRDNRWLGSDLV,amyloid nucleation score,-0.178 ± 0.54
IQAAEVWMTAPFGFDMEGGR,amyloid nucleation score,inactive
IYKKNMAGRVDQKIVTQDPP,amyloid nucleation score,inactive
YSGTKY,amyloid nucleation score,inactive
IKYLNLVRSVPLFS,amyloid nucleation score,inactive
ELFKEVCEGEFRAS,amyloid nucleation score,inactive
FMFASQLMRFFHSWTVSRSS,amyloid nucleation score,inactive
QALGVGN,amyloid nucleation score,inactive
EFCIRRIM,amyloid nucleation score,inactive
FSGNRSGESSVRWNQYELGV,amyloid nucleation score,inactive
YFLNSQVSNLLGS,amyloid nucleation score,inactive
TNANFATDSHFLVITE,amyloid nucleation score,inactive
TLSIEMGQLDRERVGLNCKR,amyloid nucleation score,inactive
SCWLGVVETRHNLYDAQNGS,amyloid nucleation score,inactive
FYPLYSNEHCCG,amyloid nucleation score,inactive
NVALVRTGVIHWSYSVISRV,amyloid nucleation score,inactive
VGNEECIYQIRFFLRLSGSL,amyloid nucleation score,inactive
NFFCASRVMGLLMIF,amyloid nucleation score,inactive
ISIGYEQFLDSCNLLSIYLT,amyloid nucleation score,inactive
YKNSGFNLFNRVGNWMGVKL,amyloid nucleation score,inactive
SDTRGVF,amyloid nucleation score,inactive
IFLDNFFKSFFGRRGSKS,amyloid nucleation score,0.662 ± 0.13
WVRSFMSLCFW,amyloid nucleation score,0.974 ± 0.089
ELSTMIKSSCPPLIDRWLFP,amyloid nucleation score,inactive
PFRVLLQGIKDAPSKFIDSG,amyloid nucleation score,inactive
IKVTIYPRLTRSNATFMPSM,amyloid nucleation score,inactive
IYAGS,amyloid nucleation score,-0.633 ± 0.96
FWTLDRLRMLYVAILQPWSD,amyloid nucleation score,inactive
YSESMRGNQ,amyloid nucleation score,inactive
YCIVLKYNQLLSTMSANNMY,amyloid nucleation score,1.19 ± 0.1
LASIHCVHLMRTYVRVQPPM,amyloid nucleation score,0.87 ± 0.26
RGMYMRYLGFLDHLNLRVFC,amyloid nucleation score,inactive
IKVLVWFRSRCGNGANNLVC,amyloid nucleation score,inactive
SSWYSRAPWLRVEMRRKWYM,amyloid nucleation score,0.025 ± 0.61
WLVYPC,amyloid nucleation score,inactive
AVTYENRSNLIVKVLVI,amyloid nucleation score,-0.363 ± 0.27
FPVYQCWLSN,amyloid nucleation score,inactive
GQPAH,amyloid nucleation score,inactive
EIIFSSLSIPLYMLEGI,amyloid nucleation score,inactive
LCERIGVISGA,amyloid nucleation score,inactive
SFMACRLCGRAVDDIVEYTV,amyloid nucleation score,inactive
AVIVVINNQTH,amyloid nucleation score,2.78 ± 0.077
CGWIFNLYSRRIQALEGRAS,amyloid nucleation score,inactive
EVPGHSGQYSGVDYGYVWLA,amyloid nucleation score,inactive
GFSNFQEVVGILYCQFWVLL,amyloid nucleation score,1.33 ± 0.075
LCSAIGWSSACIFVWSYYTR,amyloid nucleation score,inactive
YNMTLTYLRLLGAGSIISCL,amyloid nucleation score,inactive
SDGNSMLGDFRVRMVCHMLL,amyloid nucleation score,inactive
LCLVSLVIHHGYVLVT,amyloid nucleation score,inactive
VVSLPTNILSNTIGEYMEVQ,amyloid nucleation score,inactive
ACYNSKRMGGMYNSRVLDHD,amyloid nucleation score,inactive
NFTRC,amyloid nucleation score,inactive
ATSTTSLRVNLDHCAETFQN,amyloid nucleation score,0.238 ± 0.44
PLRKSGQPSYAMPTRHARCI,amyloid nucleation score,inactive
LSIYRFSCTNSRCLMDLFI,amyloid nucleation score,inactive
SMSAMYDSAIVV,amyloid nucleation score,inactive
WKAFNVTPFRGWVNVAVLA,amyloid nucleation score,inactive
IRFVLYISGILSCWFNRWNN,amyloid nucleation score,inactive
LIISCMQFLVYKKCGFSMRH,amyloid nucleation score,inactive
PYAILFNAWNLSAPMACSWV,amyloid nucleation score,inactive
TFTTFRWDEGVLLYLYERVG,amyloid nucleation score,inactive
ASYYF,amyloid nucleation score,inactive
FNWLGLGLMLGIDRDRCDNV,amyloid nucleation score,inactive
MTLHAILFLTRSLDALYLLT,amyloid nucleation score,inactive
DNLWRVRLRCKAFSLYVLNR,amyloid nucleation score,inactive
QQGFSVLERCISEV,amyloid nucleation score,inactive
NPETASLNLIKMSMHVSSFV,amyloid nucleation score,inactive
WCKCYMSSSWTC,amyloid nucleation score,inactive
LFGARDVFFER,amyloid nucleation score,inactive
SLAGEHPRPIVG,amyloid nucleation score,inactive
SNGELTVEHQGLQPLGEKRT,amyloid nucleation score,inactive
SYRRIGHMRTKLGQVVR,amyloid nucleation score,inactive
TSMRKSACSWTLFSLR,amyloid nucleation score,inactive
SFNRGRLATLYSSLVHGRLR,amyloid nucleation score,inactive
YLMYLGSFSAMLREKWQL,amyloid nucleation score,inactive
SLLRDVKG,amyloid nucleation score,-0.487 ± 1.4
SIHLMWRQCYFSLLCVNKGM,amyloid nucleation score,inactive
NKKSSAMYCQGIFLTFILLV,amyloid nucleation score,inactive
GHSGKVVL,amyloid nucleation score,inactive
PQTWVTWKIWYLGFGVAVGV,amyloid nucleation score,inactive
TFLMAYSWSCRQRNCKGFIY,amyloid nucleation score,inactive
GRSLCVVCSGLVWLCW,amyloid nucleation score,2.19 ± 0.077
PLGDARLTSRRDPPYRTTPL,amyloid nucleation score,0.979 ± 0.17
DFRLPNSPYAHCYLMHRLII,amyloid nucleation score,inactive
VHVVLIIWTSHQLTCADLAY,amyloid nucleation score,inactive
PCMNGVASFWNCGIKIFGSF,amyloid nucleation score,inactive
IFQRKRRTYLS,amyloid nucleation score,inactive
YMDLSILGAMVSVSFNMG,amyloid nucleation score,2.56 ± 0.063
IWWNHCEHHMLRSSLRVRAY,amyloid nucleation score,inactive
MILKNWNVSISRGSRFNSYV,amyloid nucleation score,inactive
INLFTAYAVSL,amyloid nucleation score,inactive
WVKNLVFEGHVGA,amyloid nucleation score,inactive
RFWFMDFFSH,amyloid nucleation score,1.89 ± 0.076
VACHRS,amyloid nucleation score,inactive
ICYRWY,amyloid nucleation score,0.192 ± 0.19
TLLYTI,amyloid nucleation score,inactive
ITRTSDLFMLGSLINRGIAA,amyloid nucleation score,inactive
FKPTRSHQGSFSSVTMFLVG,amyloid nucleation score,0.261 ± 0.29
VFETEKLSHFKCEVLDCQ,amyloid nucleation score,inactive
CTGLECIGTAYRQGGDRVLW,amyloid nucleation score,inactive
ARDCGRFIFLWWRYSLTKRH,amyloid nucleation score,inactive
FSGATSFNQIYAVRTSCLFV,amyloid nucleation score,1.01 ± 0.18
WLSYKSH,amyloid nucleation score,0.392 ± 0.54
HVVHYDMFHDGLSLWDQEAR,amyloid nucleation score,inactive
YIAFCSRDSFRLVMRHNSGI,amyloid nucleation score,inactive
SFECDRYYFSWDGFMSGLT,amyloid nucleation score,inactive
VCYDVCGRGWTCQY,amyloid nucleation score,-0.011 ± 0.42
ISQHMANFYNSVVVVCILED,amyloid nucleation score,3.19 ± 0.075
CPRGPWFFTTTAVTSALNIS,amyloid nucleation score,-0.016 ± 0.86
LKYFQVRT,amyloid nucleation score,inactive
NENTNLIRLNGTDMRAYKLW,amyloid nucleation score,inactive
YLNSYQDIYVRCVLELLYSS,amyloid nucleation score,inactive
VVDYTARWHRSYSSNGQRRM,amyloid nucleation score,inactive
NQQWIP,amyloid nucleation score,inactive
IQMSNLNNTSLQVRRPRPCV,amyloid nucleation score,inactive
YVLRCVFSSDNKDGAWTTWI,amyloid nucleation score,inactive
ILLIVL,amyloid nucleation score,1.68 ± 0.061
CESPLERSSAKYCRWGSCWG,amyloid nucleation score,inactive
NSVNMTRCRVYTCFAFCNW,amyloid nucleation score,3.13 ± 0.07
CSGAIHYPYRLMRERNFTGR,amyloid nucleation score,inactive
LSNDQSDTMEKCRRSVTLW,amyloid nucleation score,inactive
TVVVGLVGF,amyloid nucleation score,0.825 ± 0.2
FCTGWSNGLVNHVDYKKGRN,amyloid nucleation score,inactive
SKKPVEMTRNI,amyloid nucleation score,inactive
NKLCYSSDLYWRVTDKDEHR,amyloid nucleation score,inactive
EFFHNYVINMERYNCVLVRM,amyloid nucleation score,inactive
KTLTGQFGCSTTALCNDVEC,amyloid nucleation score,-0.515 ± 0.75
RNGIVGD,amyloid nucleation score,inactive
SNGHFAVGDDPEK,amyloid nucleation score,inactive
CWGST,amyloid nucleation score,inactive
SNAHMCVRRTAWKNI,amyloid nucleation score,inactive
LNWVKTYVAYLFFYSISKRC,amyloid nucleation score,inactive
VWDYLVAYYVALKNVTDSGQ,amyloid nucleation score,inactive
RWNIS,amyloid nucleation score,0.28 ± 0.22
DMACMVFGWE,amyloid nucleation score,inactive
SNVVSSI,amyloid nucleation score,inactive
KRRSTRL,amyloid nucleation score,inactive
YANDANSCDWCICAFDRRSC,amyloid nucleation score,inactive
LFNNFYLVSFGWLDGG,amyloid nucleation score,2.31 ± 0.068
YMGLTLSVMRPGMTYFPKMF,amyloid nucleation score,inactive
